# Assay: soluble on expression in E. coli; label from the status in PepcDB or PDB records
row,Sequence,soluble on expression in E. coli
1,MDDHNALLAERHTIFQSSLMTALLDGIYDGEISIGELLGHGNFGIGTFDALDGEMVILDGVCYQLRGDGSASEAALTQRSPFAIATNFVPRLKARVPRGMHRSELSDFITSLLPSENYMYAVRISGMFSSVSVRTVTKQERPYRPMTQATGDDAELEFTNVSGVVAGFRTPIYEKGIGVPGCHVHFIDTDRTSGGHVLDFTMSEGTIEVCPGTDLQLRLPLTQDFSKASLAPDDLDAQIHATEVKG,not soluble
2,MPKKTFENLEDSHGKDVNIPVELPKRKREVTPENLPSTSSTAPTQKRKSLGYSGRTEEPKNIHKTFISPFSTSVSPSKQGLRRRKKALPAIEPPVSVEEASPLRFVNIDVFSRRMASESSDHDAMIAKLLSRKFSIPMEGYMLSGRSLGLGGNRRKCALFDPYHEGALILYAPEHLSEHAQLKEDKDRKVHVVADPVVGKILRPHQRDGVKFMWDCVTGINIPEFHGCIMADEMGLGKTLQCISLLWTLLRQSPDACPTVSKSIIVCPSSLVKNWDKEIKKWLGTRLNAMPVDSGKREQIIACLNSFMADSKMRCAIPVLIISYETFRLYANILHSGDVGIVICDEGHRLKNSENLTYQALSGLKCARRVLISGTPIQNDLLEYFSLVNFVNPGLLGTASEFRKKFENAILKGRDADASSEDQKKGEEKTKEMISLVEKCIIRRTSALLTKYLPVKYEHIICCKNSTLQETLYNKLIECEKQNRIVEKDKGATASALSFITHLKKLCNHPYLVYDEFQKPDNRFRNKCLSIFPESFNPKSFDPSFSGKMKVLDYILAVTRKTTDDKFVLVSNYTQTIDQFMELCKLRGYDFVRLDGSMSIKQRSKIVDTFNDPASTIFCFLLSSKAGGCGLNLIGANRLVMFDPDWNPANDDQAMARVWRDGQKKMCFIYRLLATGSIEEKMFQRQTHKKALSSCVVDAGEDVARHFSSEQLRELFKLESTVASDTHEKLKCKRCIQGVESVDPPTNADCASDLSNWFHSQKSARKVADNVLRAVFECGSISFVFHQKSHNVEVKKVQEKVEEVDEDYVPSEAEENDD,soluble
3,MGSDKIHHHHHHMLWSMTDGATPATPPTAAPEERFPHVNPLVYRFVVDVTFLPVLLTGMHIDVHGREHVPPPGTPLVVAANHQSALDPFLIARALPPGRYLQFMAKRELFVPVIGDIIRAGGSFPVDRESNDVGAIRTSLRILKAGGTVGIFPQGTRGGQELHGGAALIAARGRAPILPAGISHDGKRWVVRFGEPLPARGGIKANTEELGRRLQVLAQPVGRHL,not soluble
4,MSPQTRPDAMSVVQERQVLRVGTLINPTSYYFDHDREQGFEYDLAKRFADRLGVELEMVPRFDVNDLFTMLRRGEVDIVAAGLDRTSTRAQLFRFSPPYDIISQKVVFKQGSRQRPRDLQQITDGEIVVVEGSSHHEFLKSLGDSIPTLKWRATRDHDAVELLQMVISGEVDYTITDSTALDIQRRFHPDLSVAFTVKHDQDIAWALPQGKDDSLFAAVIEYFGEIRSSGRLAHIKEQHFGHVKQFNYVTTSLFIEAVEQVLPGYIETFKEHSGSLDWRLLAAISYQESLWNPRAVSPTGVRGMMMLTLPTAKAMGVKSRLNAEQSIRGGARYLERMLNRVPARIPQPDRTWFAIAAYNIGFGHLEDARIITERQGGNPDRWVDVKKRLPLLRQKQFYRHTRYGFARGDEPVTYVGNIRRFYDTLKYLDEQGRLLEHHHHHH,soluble
5,MGSDKIHHHHHHMDVENIFRDVKLSKTEMTVLRFIQNDPEQCIRQGVRAVAEQCYSNPSSLVRLAKKLKFSGWLELVYFIKFNITMPKLDVTNDIDYMSVQPEEALTPLLASLNQQRILIHGSGFSQLIAQYIYNKFLVTGVNASLALWPDYEILEQKNAACFDSIWIISKSGRSSSALNWVKALEGKEINLVCFTGDYQSPLAQAADTAFIIHDPQKFDDDIYWSNPFFGYCILGFERLLKMWFTSLRSNS,not soluble
6,MGSDKIHHHHHHKIEELTAVPLQIGYEKTLHLIFPTEVKYYSIGGDYVIGEKVVNCPGIIRLKAAEENFPGETTLSVVTADTKFYSYSISYNAHPAQSYVRIGGEAPTPHTLPVGKEKQLFLIFPAGITYVDYGSTNVEVDKAEGVDNILAVKAVQPYKEDTNISVVLEGGKFYTFDLRYVPAPERFSFVIDKEDTQRVAILDEKERSYGQKERIREAVAKRTPLDLGLRDKNSGMEFEVGNIFIDGDVLLLRMTLTNRTQIGYTTDFMRFYIQDAKIRKKTAVQQLEQNILFTFDYPEEIPAHESRTFTVAMNKFTIPDKKRLIIEIQERNGGRHFLYKLKNKSLLTAEEVFRSRKQQETEDEADKILRRIAR,not soluble
7,MGSDKIHHHHHHMKNVIKFYEKGSIEILYGKSSHSFPLHSHECFCVGAITKGSALFTINNTKCLLEESMVFIIPPNTGISITANSQYDYITICFKNELKKQVEHILFNKFFLKIKSNDEIFNLCDIFKENNNEKQLLNSILILINSTIATNSLVMETSTNNTVLLICEYIKQTAAKNFSLDTLAESFYLSKYHLIRMFKKEMGVTPYQYYIQAKMGIIRRQIFNGKSETDLAINLNLSDSSHLCKIFKRQMGISIQAYKKNLIRK,not soluble
8,MEPKVYKPPISKAIGLVVGSVLPVNPRDLEKMMRRLGIKVEQLSADEARIVLGSGETMVFRSPTVIVMRAKGQPPMVYLVGDYTVEKPREETAAEITEEDVALVAEQAGVSMEEARKALEESGGDIAEAILRLKGEE,not soluble
9,MGSDKIHHHHHHMWTPCGRADGNANSPRQSQFALDDLIDIPTDFSLYSTALKKFSQGMERPMYRNFRIVPNIIFGRGSFNQLDDVLKDRRVTADSWMVFVVDDVFTGKPLEGRFPLRGRDLLLWVNVDDEPKTRYIDELVARIRAYSPTAPAGIAGIGGGSAMDIAKAVSLMLNNPGSSADYQGWDLIKNPAVYHVAVPTLAGTGAEISRTTILTGPEKKLGINSDYTLYDQILLDPELLAGVPKNQWFYTGMDCYIHDVESLNGTFINEFSKAYGEKSRDLCREVFLDDSPAKDDKLMMASYFGGMSIAYSQVGACHALSYGLSYVLGIHHGVGCCIAFDQLEEIYPEGVQEFRQMMEKHDIPLPRNLTKDLDSASMEKMVTTALNLVPLWENCLGPDWANIMTRERAMELYKKM,not soluble
10,MCELDILHDSLYQFCPELHLKRLNSLTLACHALLDCKTLTLTELGRNLPTKARTKHNIKRIDRLLGNRHLHKERLAVYRWHASFICSGNTMPIVLVDWSDIREQKRLMVLRASVALHGRSVTLYEKAFPLSEQFQRKLMTNFLEHHHHHH,not soluble
11,MSLNTYLNEISKFVDENREEIVSLWKEIVNMESYTHCKESVNKLAERLKLEFEKEGLDCELVDVGDNGSTLIGTLGSNIDKKPIIFSGHMDTVFETGTFGENPFKIIEGKAYGPGVLDMKGGIIISLYVIKALNKIGYKERPIKIVFSGDEEIGHKDSTGADVILREAKGGLCAFNMETGLVDNSLCVGRKGRIGCNIHVKGVETHAGNDFEGGRNAIEEMANKILRIQKLTNLDVGTTVSVSVIKGGRVENSIPEDCSIKVDLRFEKVEEMENVKEQVREICKETYIEGTSTEVNFISEMMPFETTEDVMRFHTFVNEVSKENGFGELNAKRLGGSSDASYLTIANVPTICSFGVRGEWNHTSREYAVVDSMFERVKLISTVILNLDKFEEGHHHHHH,soluble
12,MLMPRQTTPPLSLPLVGGGRFDLSAETSTRWTLICFYRGLHCPICATYLKELEKRVADFAERGVACVAVSSDSEERAQAMAEKVGGGTLRFAYDLPLAEARDWGLYISTSRGKTSIGIEEPALFSEPGLFLVTPERTLYYGAVQTMPFVRPHFSELVAALDFAIPNNYPARGEYTGAV,soluble
13,MKPRESMVRLKMFQVRGKRREIAQLEMMIAEFERMVLELEAQIVHEECKSGNSDVHHFAYSALARAARQRRDNLINSIRDLQLQKTNAEIALHEVTTELQRAQLLEARENGGVAGEKDIFMQSRSMTG,not soluble
14,MPVAPNPLLQANAIAKTSRSATVQADKPLQALGDKGDAFGQVMARQGRDKVTGQDDKVAQAKPKDKPDAAAGGKKDPAGKAAVADDGNKLPEEDSAQADTGVRDASLVAGQVTDAQPGAQLIQAQAEAVAPVLQAATAQTQVSAALPEEPSAEEAFDPDADPLANLPTLRLALEHSAQAKGGTSAHALDAAQAQGEEGQAAVNTLANLVEDTDGESAESGGKAFGALLEDGLKDTKSASSDTRIDDFANRLASLTQAATAKTANAVPATANPLHQPLPMNQNAWAEGLVNRVMYLSSQNLKSADIQLEPAELGRLDIRVNVAADQATQVTFISGHAGVRDALDSQVHRLRELFAQQGLAQPDVNVADQSRGQQQQQGQAQGSNLSGVAARRAEQGGAEAVDSARPLEQQVVVGDSAVDYYA,not soluble

# From the DeepSol protein solubility set
